From article PMC2764089 come the findings set out here.

For this experiment, the target named is Spc105p-PrA (S. cerevisiae) (UniProt P53148). The experiment can be described thus: SEC + other: glycerol-gradient velocity ultracentrifugation; whole cell extracts of wild-type strains expressing Spc105p-PrA or Kre28p-PrA (each fusion in its own strain); 10-40% glycerol gradients and HiPrep 16/60 Sephacryl S-500 HR column; fractions found by western blotting with anti-PrA. (Immunoblotting shows a protein as a band on a membrane.)
Sequence of UniProt P53148 (P53148 whole entry, the tested form may be a part): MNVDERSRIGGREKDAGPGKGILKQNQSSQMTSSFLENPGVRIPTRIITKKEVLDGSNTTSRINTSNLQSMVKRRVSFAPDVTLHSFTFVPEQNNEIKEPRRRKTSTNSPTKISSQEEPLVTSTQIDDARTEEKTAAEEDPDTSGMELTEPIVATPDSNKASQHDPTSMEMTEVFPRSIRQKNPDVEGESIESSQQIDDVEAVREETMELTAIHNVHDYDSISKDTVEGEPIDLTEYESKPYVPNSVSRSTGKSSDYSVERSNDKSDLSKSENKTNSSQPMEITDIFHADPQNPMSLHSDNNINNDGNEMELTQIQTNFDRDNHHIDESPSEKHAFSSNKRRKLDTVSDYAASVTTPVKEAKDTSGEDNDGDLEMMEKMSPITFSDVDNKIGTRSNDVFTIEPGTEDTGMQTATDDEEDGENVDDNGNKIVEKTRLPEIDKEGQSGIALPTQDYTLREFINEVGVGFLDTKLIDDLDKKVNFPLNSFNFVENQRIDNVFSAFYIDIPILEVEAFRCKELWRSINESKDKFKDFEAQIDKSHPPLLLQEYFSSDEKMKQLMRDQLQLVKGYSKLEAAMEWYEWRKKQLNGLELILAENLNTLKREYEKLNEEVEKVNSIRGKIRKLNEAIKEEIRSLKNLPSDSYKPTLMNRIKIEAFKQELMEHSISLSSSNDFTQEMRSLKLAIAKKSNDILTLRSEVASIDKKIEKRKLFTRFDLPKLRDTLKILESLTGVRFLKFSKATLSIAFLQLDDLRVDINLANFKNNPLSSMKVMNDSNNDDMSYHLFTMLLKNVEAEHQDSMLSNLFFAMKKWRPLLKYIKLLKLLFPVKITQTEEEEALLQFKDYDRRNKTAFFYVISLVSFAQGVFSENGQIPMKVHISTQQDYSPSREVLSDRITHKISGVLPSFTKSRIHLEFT

For the substance “Kre28p-PrA (from UniProt Q04431 1-385) (natural protein)”, the stoichiometry N (Kre28p per Spc105p) is 2.
